{"source": "paper PMC7870846", "about": "“Incorporation of sensing modalities into de novo designed fluorescence-activating proteins” (Nature Communications, 2021)", "molecules": {"B1": {"name": "aBFL1: designed binding partner of BFL1 (protein)", "chain": "GADPKKVLDKAKDQAENRVRELKQKLEELYKEARKLDLTQEKRKKLEVATLGAVLAAHGDILNAIMQAKEEADKLKKAGLVNSQQLDELKRRLEELKEEALRKASDYGNEFHLKRRYG"}, "B2": {"name": "mFAP2: previously reported mini-fluorescence-activating protein, initial design (protein)", "chain": "SRAAQLLPGTWQVTMTNEDGQTSQGQMHFQPRSPYTMDVVAQGTISDGRPISGYGKVTVKTPDTLDVDITYPSLGNIKAQGQITMDSPTQFKFDATTKGAGNFTGRLTGTLQRQE"}, "B3": {"name": "mFAP_pH: particularly pH-responsive variant (protein)", "chain": "B2 chain with V39I, S52V, V57A, V67I, A100E, G101N, N102D, T104H"}, "B4": {"name": "aBCL2: designed binding partner of BCL2 (protein)", "chain": "GADPKKVLDKAKDEAENRVRELKQRLEELYKEARKLDLTQEMRQELVDKARAASLQANGDIFYAILRALAEAEKLKKAGLVNSQQLDELKRRLEELAEEARRKAEKLRDEFRLKLEYG"}}, "key": {"BCL2": {"target": "BCL2", "parameters": "method as in PMID 27805565", "settings": "read-out: dissociation constant (Kd); cited from earlier work"}, "[1]": {"test": "In vitro chromophore titration with DFHBI (fluorescence, single-binding site isotherm fit)", "description": "Fluorescence endpoints were measured on a Synergy Neo2 hybrid multi-mode reader (BioTek) in flat bottom, black polystyrene, non-binding surface 96-well microplates (Corning 3650). In measuring chromophore-binding affinities (Fig. 1d, e), mFAP2, mFAP2a, and mFAP2b, and mFAP10 were produced by large-scale protein purification and SEC purification. Proteins were aliquoted in eight technical replicates in 200 μL final volumes to 20.0 nM final concentration in ten serial dilutions ( 10 dilution factor) of DFHBI starting from 31.6 μM DFHBI or 31.6 μM DFHBI-1T final concentrations, including an eleventh condition without chromophore. Fluorescence was excited at λex = 468 nm and fluorescence emission measured at λem = 530 nm. Background fluorescence endpoints of wells with identical chromophore concentrations but purified protein replaced with an identical volume of high-salt Tev cleavage buffer were measured, and fluorescence endpoints subtracted from those measured with protein. Background-subtracted data were averaged and the means normalized from 0 to 1 and fit to a single-binding site isotherm function using non-linear least squares fitting to obtain a fitted Kd value (Table 1), and the fit scaled to the maximum mean value (Fig. 1d, e)."}, "[2]": {"parameters": "method as in PMID 30209393", "settings": "read-out: Kd for the phenolate form of DFHBI; cited from earlier work"}, "[3]": {"settings": "with DFHBI; cited from earlier work"}, "[4]": {"test": "Photophysical characterization: absorbance, excitation/emission spectra, extinction coefficients, quantum yields", "type": "physicochemical", "description": "Protein preparation: mFAP2a, mFAP2b, and mFAP10 were produced by large-scale protein purification and SEC purification, and dialyzed overnight into DPBS that was adjusted to pH 7.40 using NaOH.\nChromophore preparation: DFHBI (Lucerna) and DFHBI-1T (Lucerna) were dissolved to 20.0 mM in 100% DMSO, and diluted in DPBS (pH 7.40) to measure absorbances on a Jasco V-750 spectrophotometer at peak absorbance wavelengths (417 nm for DFHBI and 422 nm for DFHBI-1T). Following background subtraction of identical buffer without chromophore, Beer’s Law was used to calculate the molar chromophore concentrations of the stock solutions using previously reported extinction coefficients.\nPreparation of protein–chromophore complexes: For quantum yield measurements, 1.00 μM, 836 nM, or 919 nM chromophore solutions in DPBS (pH 7.40) at 4.00 mL final volumes were prepared for the following eight conditions: DFHBI only, DFHBI-1T only, 43.5 µM 6xHis-mFAP10 with DFHBI, 43.5 µM 6xHis-mFAP10 with DFHBI-1T, 134 μM 6xHis-mFAP2a with DFHBI, 134 μM 6xHis-mFAP2a with DFHBI-1T, 206 μM 6xHis-mFAP2b with DFHBI, and 206 μM 6xHis-mFAP2b with DFHBI-1T.\nExtinction coefficients: Absorbance spectra of protein–chromophore complexes were first measured with a Thermo Scientific BioMate 3S UV–Vis Spectrophotometer (1 nm interval, 800 nm min^−1). The extinction coefficients were then calculated using Beer’s Law:12 A=ε⋅b⋅c, where A is peak absorbance, ε is extinction coefficient, b is path length (1 cm), and c is concentration (1.00 μM, 836 nM, or 919 nM).\nRelative quantum yield: A Perkin-Elmer LS-B Luminescence Spectrophotometer (10 nm bandwidth, 1 nm interval, 100 nm min^−1) was used. The fluorescence emission spectra of the protein–chromophore complexes (in DPBS, pH 7.40) and reference dye Acridine Yellow G (in methanol) were first obtained, and the quantum yield was then calculated using the equation[53]:13 ϕc=ϕr⋅1−10^−Ar(λex)/1−10^−Ac(λex)⋅∫Fc(λ)⋅dλ/∫Fr(λ)⋅dλ⋅nc2/nr2, where ϕ is quantum yield, A(λex) is absorbance at the excitation wavelength λex ( λex = 440 nm), F is fluorescence emission, n is refractive index of the solution (1.3350 for DPBS at pH 7.40 and 1.3284 for methanol), and the subscripts “c” and “r” refer to the protein–chromophore complex measured and the reference dye, respectively. […]\nAbsolute quantum yield: An integrating sphere instrument (Hamamatsu C9920-12) (6 nm excitation bandwidth, 1 nm interval) and a high-sensitivity photonic multi-channel analyzer (Hamamatsu C10027-01) were used to measure a light emission spectrum. Absolute quantum yields were measured for solutions of protein–chromophore complexes in DPBS (pH 7.40) in which ≥95% of the total chromophore was occupying the protein-binding pocket (Table 1). […]"}, "[5]": {"test": "pH-dependent fluorescence assays (pH titration)", "type": "biochemical", "settings": "from pH 8.38 to pH 3.63", "description": "In measuring pH-dependent fluorescence (Fig. 3d–i), Na2HPO4-citrate buffer supplemented with 150 mM NaCl at unique pH values were produced via mixing various volumes of 100 mM citric acid (Sigma Aldrich), 200 mM Na2HPO4 (Sigma Aldrich), and 2.00 M NaCl, and final pHs quantified via an Accumet AB15 Basic pH meter (Fisher Scientific). pHRed and pHluorin2 were produced via large-scale protein purification, 6xHis-tag removal and size-exclusion chromatography (SEC) purification, and mFAP_pH and mFAP2b were produced via large-scale protein purification and SEC purification. pH-dependent fluorescence was measured at […] final protein concentration for mFAP2b, mFAP_pH and pHRed, and 170 nM final concentration for pHluorin2, at each pH in technical triplicate in 200 μL final volumes per well. […] In measuring fluorescence excitation spectra at each pH (Fig. 3d), excitation wavelengths were set to the range λex = 300–530 nm and fluorescence emission measured at λem = 562 nm. In measuring pH-dependent fluorescence excitation spectra at pH 3.76 and pH 7.34 (Fig. 3f, g), excitation spectra were measured using excitation wavelengths in the range λex = 300–540 nm and emission wavelength λem = 592 nm. […]"}}, "note": "Substitutions are numbered along the chain they refer to.", "data": [{"molecule": "B1", "values": [{"measurement": "Kd", "setting": "BCL2", "result": "320 ± 40", "unit": "nM"}]}, {"molecule": "B2", "values": [{"measurement": "higher affinity for DFHBI than DFHBI-1T", "setting": "[1]", "result": "~ 30 fold"}, {"measurement": "Kd", "setting": "[2]", "result": "~180", "unit": "nM"}, {"measurement": "absolute fluorescence quantum yield (ϕc)", "setting": "[3]", "result": 2.1, "unit": "%"}, {"measurement": "brighter fluorescence with DFHBI-1T than DFHBI", "setting": "[4]", "result": "~ 2.7 fold"}]}, {"molecule": "B3", "values": [{"measurement": "fold-change in ratiometric fluorescence (Fratio)", "setting": "[5]", "result": "~ 250 fold"}]}, {"molecule": "B4", "values": [{"measurement": "Kd", "setting": "BCL2", "result": "0.8 ± 0.5", "unit": "nM"}]}]}
